Assays:
[1] = target: T1, recombinant human soluble gpNMB (recombinant human gpNMB-FLAG-His) (human, UniProt Q14956 23-498); assay: SPR, antibody 100 nM over captured gpNMB-FLAG-His, 25C
T1 sequence: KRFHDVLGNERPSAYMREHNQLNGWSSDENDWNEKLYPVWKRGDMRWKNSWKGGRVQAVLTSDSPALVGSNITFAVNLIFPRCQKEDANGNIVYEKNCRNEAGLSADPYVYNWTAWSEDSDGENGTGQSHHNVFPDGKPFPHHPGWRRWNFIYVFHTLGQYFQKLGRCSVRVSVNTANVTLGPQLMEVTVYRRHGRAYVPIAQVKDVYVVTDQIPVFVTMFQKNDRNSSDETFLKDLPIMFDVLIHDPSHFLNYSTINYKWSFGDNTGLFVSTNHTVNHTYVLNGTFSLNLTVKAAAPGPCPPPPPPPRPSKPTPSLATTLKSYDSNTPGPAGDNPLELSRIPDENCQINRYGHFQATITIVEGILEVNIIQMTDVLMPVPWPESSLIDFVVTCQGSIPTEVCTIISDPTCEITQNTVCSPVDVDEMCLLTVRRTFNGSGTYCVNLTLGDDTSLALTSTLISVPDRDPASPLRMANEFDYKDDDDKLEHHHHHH

[2] = target: T2, recombinant mouse soluble gpNMB (recombinant mouse gpNMB-FLAG-His) (mouse, UniProt Q99P91 23-502); assay: as above
T2 sequence: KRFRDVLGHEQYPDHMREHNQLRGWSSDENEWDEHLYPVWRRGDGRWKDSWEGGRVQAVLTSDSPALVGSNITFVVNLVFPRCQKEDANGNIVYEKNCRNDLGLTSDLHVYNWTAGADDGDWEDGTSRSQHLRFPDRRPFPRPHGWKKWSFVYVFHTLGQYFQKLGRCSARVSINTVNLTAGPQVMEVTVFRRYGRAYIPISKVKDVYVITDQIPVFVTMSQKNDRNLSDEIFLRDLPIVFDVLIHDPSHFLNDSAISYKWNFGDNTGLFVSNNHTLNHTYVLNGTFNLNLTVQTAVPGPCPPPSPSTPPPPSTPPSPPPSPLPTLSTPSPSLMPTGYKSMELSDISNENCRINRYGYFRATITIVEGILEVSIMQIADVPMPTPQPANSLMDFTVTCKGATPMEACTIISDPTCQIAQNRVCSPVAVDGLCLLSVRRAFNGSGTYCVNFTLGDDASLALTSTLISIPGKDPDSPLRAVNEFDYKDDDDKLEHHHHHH

[3] = target: T1, recombinant human soluble gpNMB …; assay: antigen ELISA, vs hGPN18-2_H2L3
[4] = target: T1, recombinant human soluble gpNMB …; assay: antigen ELISA

B1: GPN05-1 (antibody, V domains shown)
VH: QVQLQQSGAELVRPGTSVKVSCKASGYAFSNHLIEWVKQRPGQGLEWIGVINPGSGGTNYIEKFKGKATLTADKSSSTAYMQLSSLTSDDSAVYFCARGANWDVGFAYWGQGTLVTVSA
VL: EIQMTQSPSSMSASLGDRITITCQATQDIVKNLNWYQQKPGKPPSFLIYYATELAEGVPSRFSGSGSGSDFSLTISNLESEDFADYYCLQFHEFPRTFGGGTKLEIK
notes: monoclonal with mouse IgG constant regions
Kd [1]: 3.3 nM
koff [1]: 0.00016 s⁻¹
kon [1]: 48000 M⁻¹ s⁻¹
Kd [2]: 20 nM
koff [2]: 0.0013 s⁻¹
kon [2]: 61000 M⁻¹ s⁻¹

B2: GPN06-1 (antibody, V domains shown)
VH: QVQLQQPGAEIVRPGASVKLSCKASGYTFTDNWMGWVKQRPGQGLEWIGAIDPSDSFTNYNQNFKGKATLTVDTSSSTAYMQLSSLTSEDSAVYFCTRSGYYGSPKLGGDYWGQGTTLTVSS
VL: QIVLTQSPAIMSASLGEEITLTCSASSSISYMHWYQQKSGTSPKLLIYSTSNLASGVPSRFSGSGSGTFYSLTISSVEAEDAADYYCHQWNSYPCTFGGGTKLEIK
notes: as for B1
Kd [1]: 1.4 nM
koff [1]: 0.00049 s⁻¹
kon [1]: 340000 M⁻¹ s⁻¹
Kd [2]: 12 nM
koff [2]: 0.0018 s⁻¹
kon [2]: 150000 M⁻¹ s⁻¹

B3: GPN09-1 (antibody, V domains shown)
VH: QVQLKASGPGLVQPSQTLSLTCTVSGLSLTSININWIRQPPGKGLEWMGVIWSDGDTDFNSAVKSRLSISRDTSKSQVFLNMNSLQTEDTAMYFCARGIRDWGQGVMVTVSS
VL: DIVMTQTPLSLSVAIGQSASISCKSSQSLKYSDGKTYLNWVFQSPGQSPKRLIYQVSKLDSGVPDRFSGTGSETDFTLKISRVEAEDLGVYYCCQGSYSPHTFGSGTKLEIK
notes: as for B1
Kd [2]: 2.6 nM
koff [2]: 0.00042 s⁻¹
kon [2]: 160000 M⁻¹ s⁻¹

B4: GPN11-10 (antibody, V domains shown)
VH: QVNLLQSGAALVKPGASVRLSCKTSGYTFTDCYIHWVRQSHGKSLEWIGFINPNSGYTFYNEKFKSKATLTVAKSTNTAYMELSRLTSEDSATYFCTRGDYYTSNLYDWFAYWGQGTLVTVSS
VL: DTVMTQSPASMSTSVGERVTVNCKASQTVGTVVAWFQQKPGQSPKRLIYWATNRHTGVPDRFTGSGFGRDFSLTISNVEAEDLAVYYCLQYGSVPPTFGGGTKLELK
notes: as for B1
Kd [1]: 13 nM
koff [1]: 0.001 s⁻¹
kon [1]: 81000 M⁻¹ s⁻¹
Kd [2]: 4.9 nM
koff [2]: 0.00037 s⁻¹
kon [2]: 75000 M⁻¹ s⁻¹

B5: GPN15-2 (antibody, V domains shown)
VH: QVQLQQPGAELVKPGASVKMSCKASGYTFTNHNMHWVKQTPGQGLEWIGAFYTGNGDTSYNQKFKGKATLTADKSSSTAYIQLSSLTSEDSAVYYCARERYDGYYIAMDYWGQGTSVTVSS
VL: QIVLTQSPAFMSVSPGEKVTMTCSASSSVYYMFWYQQKPRSSPKPWIYLTSKLASGVPARFSGSGSGTSYSVTISSMEAEDAATYYCQQWSSNPQWTFGGGTKLEIK
notes: as for B1
Kd [1]: 0.0035 nM
koff [1]: 6e-07 s⁻¹
kon [1]: 170000 M⁻¹ s⁻¹
Kd [2]: 2 nM
koff [2]: 0.00028 s⁻¹
kon [2]: 140000 M⁻¹ s⁻¹

B6: GPN15-3 (antibody, V domains shown)
VH: QVTLKESGPGILQPSQTLSLTCSFSGFSLTTSGMGVGWIRQPSGKGLEWLADMWWDDDKNYNPSLKSRLTISKDNSKKQVFLKIASVDTADTATYYCARRVYSSWFAYWGQGTLVTVSA
VL: DIVMTQSQKFMSTSVGDRVSVTCKASQNVGANVAWYQQKPGQSPKTLIYSASYRYGGVPDRFTGSGSGTDFTFTITNVQSEDLAEYFCQQYNNYPLTFGAGTKLDLK
notes: as for B1
Kd [1]: 2.9 nM
koff [1]: 0.00037 s⁻¹
kon [1]: 130000 M⁻¹ s⁻¹
Kd [2]: 2.9 nM
koff [2]: 0.00036 s⁻¹
kon [2]: 130000 M⁻¹ s⁻¹

B7: hGPN18-2_H2L3 VL E39A (antibody, V domains shown)
VH: QVQLVQSGPGLVQPTQTLTLTCSFSGFSLSTSVMGVGWIRQPSGKGLEWLADIWWDDDKDYNPSLKSRLTISKDTSKNQVVLTMTNMDTVDTATYYCARTYYSNYEYYGMDYWGQGTLVTVSS
VL: DIVMTQSPDSLAVSLGERATINCRSSQTIILSNGNTYLAWYQQKPGQPPKLLIYKVSNRFSGVPDRFSGSGSGTDFTLTISSLQAEDVAVYYCFQGSHVPFTFGSGTKLEIKR
Relative binding activity [3]: 0.1
EC50 [4]: 84.8 nM

B8: hGPN18-2_H2L3 VL F60A (antibody, V domains shown)
VH: QVQLVQSGPGLVQPTQTLTLTCSFSGFSLSTSVMGVGWIRQPSGKGLEWLADIWWDDDKDYNPSLKSRLTISKDTSKNQVVLTMTNMDTVDTATYYCARTYYSNYEYYGMDYWGQGTLVTVSS
VL: DIVMTQSPDSLAVSLGERATINCRSSQTIILSNGNTYLEWYQQKPGQPPKLLIYKVSNRASGVPDRFSGSGSGTDFTLTISSLQAEDVAVYYCFQGSHVPFTFGSGTKLEIKR
Relative binding activity [3]: 1.12
EC50 [4]: 2.28 nM

B9: GPN18-4 (antibody, V domains shown)
VH: QVQLQQSGAELTKPGTSVKMSCKASGYTLSSYWMNWIKQRPGQGLEWIGTINPSNNYTAYNLKFKDKAMLTADKSSSTAYMQLSSLTSEDSAVYYCATWGYWGQGTTLTVSS
VL: DIVMTQSHKFMSTSVGDRVSITCKASQDVSTAVAWHQQKPGQPPKLLIYSASYRYTGVPDRFTGSGSGTDFTFTISSVQTEDLAIYYCQHHYTTTWTFGGGTKLEIR
notes: as for B1
Kd [1]: 0.32 nM
koff [1]: 1.5e-05 s⁻¹
kon [1]: 47000 M⁻¹ s⁻¹
Kd [2]: 3.8 nM
koff [2]: 0.00012 s⁻¹
kon [2]: 30000 M⁻¹ s⁻¹

B10: GPN18-1 (antibody, V domains shown)
VH: QVTLKESGPGILQPSQTLSLTCSFSGFSLSTSVMGVGWIRQPSGKGLEWLADIWWDDDKDYNPSLKSRLTISKDTSKNQVFLKIASVDTADTATYYCARAYYSNYEYYGMDYWGQGTSVTVSS
VL: DVLMTQTPLSLPVSLGDQASISCRSSQSIVHSNGNTYLEWYLQKPGQSPKLLIYKVSNRFSGVPDRFSGSGSGTDFTLKISRVEAEDLGVYYCFQGSHVPFTFGSGTKLEIK
notes: as for B1
Kd [1]: 14 nM
koff [1]: 0.00054 s⁻¹
kon [1]: 38000 M⁻¹ s⁻¹
Kd [2]: 24 nM
koff [2]: 0.00091 s⁻¹
kon [2]: 38000 M⁻¹ s⁻¹

B11: GPN18-7 (antibody, V domains shown)
VH: QVTLKESGPGILQPSQTLSLTCSFSGFSLSTSVMGVGWIRQPSGKGLEWLADIWWDDDKDYNPSLKSRLTISKDTSKNQVFLKIASVDTADTATYYCARAYYSNFEYYGMDYWGQGTSVTVSS
VL: DVLMTQIPLSLPVSLGDQASISCRSSQTIVHSNGNTYLEWYLQKPGQSPKLLIYKVSNRFSGVPDRFSGSGSGTDFTLKISRVEAEDLGVYYCFQGSHVPFTFGSGTKLEIK
notes: as for B1
Kd [1]: 23 nM
koff [1]: 0.00059 s⁻¹
kon [1]: 26000 M⁻¹ s⁻¹
Kd [2]: 49 nM
koff [2]: 0.00099 s⁻¹
kon [2]: 20000 M⁻¹ s⁻¹

B12: GPN18-2 (antibody, V domains shown)
VH: QVTLKESGPGILQPSQTLSLTCSFSGFSLSTSVMGVGWIRQPSGKGLEWLADIWWDDDKDYNPSLKSRLTISKDTSKNQVFLKIASVDTADTATYYCARTYYSNYEYYGMDYWGQGTSVTVSS
VL: DVLMTQTPLSLPVSLGDQASISCRSSQTIILSNGNTYLEWYLQKPGQSPKLLIYKVSNRFSGVPDRFSGSGSGTDFTLKISRVEAEDLGVYYCFQGSHVPFTFGSGTKLEIK
notes: as for B1
Kd [1]: 2.2 nM
koff [1]: 6.8e-05 s⁻¹
kon [1]: 31000 M⁻¹ s⁻¹
Kd [2]: 3.3 nM
koff [2]: 7.9e-05 s⁻¹
kon [2]: 24000 M⁻¹ s⁻¹

B13: GPN18-6 (antibody, V domains shown)
VH: EVQLQQSGPELVMPGSSVKISCKASGYTFTDYYMNWVRQSHGKSLEWIGDINPINGDITYNQKFKGKATLTVDKSSSTDYMELRGLTSEDSAVYYCAREAFFGYKGNYFDYWGQGTTLTVSS
VL: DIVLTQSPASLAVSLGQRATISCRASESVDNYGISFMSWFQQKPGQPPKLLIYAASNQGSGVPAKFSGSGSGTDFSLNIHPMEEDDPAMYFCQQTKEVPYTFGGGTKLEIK
notes: as for B1
Kd [1]: 24 nM
koff [1]: 0.00065 s⁻¹
kon [1]: 27000 M⁻¹ s⁻¹
Kd [2]: 31 nM
koff [2]: 0.00098 s⁻¹
kon [2]: 32000 M⁻¹ s⁻¹

B14: GPN18-5 (antibody, V domains shown)
VH: QVQLQQSGAELAKPGTSVKMSCKASGYTFTTYWMNWVKQRPGQDLEWIGAINPSNDYTEYNQKFKDKAILTADKSSNTAYMQLSSLTSEDSAVYYCGRSYSPDYWGQGTTLTVSS
VL: DIVMTQSQKFMSTSVGDRVSVTCKASQNVDNHVAWHQQKPGQSPKALIYSASYRYSGVPDRFTGSGSGTDFTLTIRDVQSEDLADYFCQQYKSYPFTFGSGTELEIK
notes: as for B1
Kd [1]: 2 nM
koff [1]: 0.0003 s⁻¹
kon [1]: 150000 M⁻¹ s⁻¹
Kd [2]: 7.7 nM
koff [2]: 0.0007 s⁻¹
kon [2]: 91000 M⁻¹ s⁻¹

B15: 1-5E (antibody, V domains shown)
VH: EVQLQQSGAELVRSGASVKLSCTASGFNIKDYYMHWVKQRPDQGLEWIGWIDPENGDTEYAPKFQGKATMTADTSPNTAYLQLSSLTSEDTAVYYCNGVYYGSRGFFDYWGQGTTLTVSS
VL: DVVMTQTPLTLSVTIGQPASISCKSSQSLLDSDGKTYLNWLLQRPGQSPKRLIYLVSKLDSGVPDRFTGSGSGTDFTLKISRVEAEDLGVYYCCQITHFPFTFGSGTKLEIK
notes: obtained by immunization with a vaccine peptide of a previous report; also called vaccine peptide antibody
Kd [2]: 9.1 nM
koff [2]: 0.0061 s⁻¹
kon [2]: 670000 M⁻¹ s⁻¹
